According to publication PMC3102710:

Biological target: SARS-CoV nsp10 (SARS-CoV Frankfurt-1)
Assay: pull-down

SARS-CoV nsp16 (enzyme) showed a % associated of 100%.
